{
  "source": "paper PMC9736018",
  "biological_target": "T1, PA3973-His6 (Pseudomonas aeruginosa PAO1161) (UniProt Q9HX43)",
  "T1 sequence": "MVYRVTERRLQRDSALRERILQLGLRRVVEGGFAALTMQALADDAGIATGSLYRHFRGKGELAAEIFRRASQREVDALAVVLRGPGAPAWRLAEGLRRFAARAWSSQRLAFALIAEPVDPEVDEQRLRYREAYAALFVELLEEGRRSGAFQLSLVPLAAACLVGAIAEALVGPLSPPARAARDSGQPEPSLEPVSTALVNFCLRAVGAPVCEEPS",
  "test": "EMSA",
  "settings": "10 mM Tris-HCl pH 8.5, 10 mM MgCl2, 100 mM KCl, 0.1 mg/mL BSA; ~100 ng DNA plus ~300 ng NS competitor in 20 uL; 23 C, 30 min; 1.5% agarose, 0.5x TBE, 4 C …",
  "data": [
    {"sequence": "GAGAATTCGCATGCCAATGGCGGCGAGGAAAGCGCCTGCGGCTGGTGCCGTGACAAGTGGGGCATCTCCTGGCAGATCACCCCGCGCGTACTCAGCGAAGCCATCGCCAGCCCCGACCGCGCGGCGGCCAGGCGCGCCTTCGAGGCGATGATGACGATGGGCAGGATCGATATCGCCACCATAGAGAAGGCCTTCAAGGGCTGAACGCCCCAACGCCTTGCAAAGGAGTCACGAAGGATCCGC (double strand) [PA2722p]", "values": [
      {"measurement": "binding", "value": "binds"}
    ]},
    {"sequence": "GAGGATCCGGGGCGGGCTCCGGAGGGTGTTCAGCTCCTAGCATAGCGCCCTCGCCTTGCGCCGTTCAGACCTTCGCGCAGCGCCCCTCGCGGCCGCGCGCCAGTTCCCTGTTGTCCTGGTCGTAGAGCTTCGCCCAGGGACGGAAGCCGATGTGCCCGGCCTCCAGGCGGTAGCGCTGGCCGGCGCTGAAGTCCTTGAACTTGAGGTTGAGCTGGCAATCGCGCCAGAGCGGGCTGTCCACGGGGCCGGCATGCGAATTCGC (double strand) [PA0061p]", "values": [
      {"measurement": "binding", "value": "binds"}
    ]},
    {"sequence": "GAGGATCCGTGGGACTCCTTGGGTCGGGCCGGTGGCGAATAGCCAGGGGGACGTCGGGCGCACAAGGTACTGCCAGAAAAACGCTAATGCAAATAATTATCAAATGGATTCAGATATGCGTTTTGTGGCAAAGTTCACCTGTTTTTGCGCGTAGCGCGACCGAACCGGATATGCCCGAGGAACCGTCGATGAGCAGCACTCCCAGCCTTTCCCATTCCCCTGCCGAGCGCATGCGAATTCGC (double strand) [PA4710p]", "values": [
      {"measurement": "binding", "value": "binds more weakly"}
    ]},
    {"sequence": "GCGAATTCGCATGCCACCACGGTTGATCCATAGGCTTCGGTCCGCGCTGCGGTGGCGCGGGCGGCGCCCATGATACCGATTCCCCGGGGCGGTGGGGCGCCGCGGAAGGGACGGGCGTAGGAGATTTCATATTTCGCAATGAGGAATCTATTCCCCATTGAGGAATGTTCTGGTGGCGTGATAGCCTGAATGGAAAAGAGAGTCATTCCCATTTGGAGAAGATCCTGGATCCGC (double strand) [PA4156p]", "values": [
      {"measurement": "binding", "value": "binds more weakly"}
    ]},
    {"sequence": "GCGAATTCGCATGCGATGGGCGGGAATTGTTGGTCGATTTATGACTTGTAGTTTCTCTGTCGTATGCCTTCAGAACTTGTTGAAGGCTTTTCGGCTCGATTGCACAATGCCGCGCCAAGGTTCGTTCGCGAATCGCGGTATGTGAGCTAGACCTCCGCAGCCGGTGCGCCATCCGCAGTGCCCCGGACTACTCGACAATCACGCAGGAGATTCGTGAGGATCCGC (double strand) [PA0195p]", "values": [
      {"measurement": "binding", "value": "binds"}
    ]},
    {"sequence": "GCGAATTCGCATGCGGCGCTGGAGATTCCCGGCGAGGGCGCGGTGGGCATGTGCTGGCGCGACGAACCGCACCGCGACCGTGCCAGCGAAGACCTGCTGGCCTGCCTGCGCGAAGGCGCGGCGGCCGAGTAGGGCGCCGGCCGGCGGGTGCTATTGCAAAAAGGCCGCGGCTTCTCGACAATGCGATTCATTATCATTCATGTGTCGCCCCGACTTTCCCATGGGATCCGC (double strand) [PA2468p]", "values": [
      {"measurement": "binding", "value": "binds more weakly"}
    ]}
  ]
}
